Experiments:
[1] = target: hemagglutinin H1 (A/Solomon Islands/3/2006) (influenza A virus A/Solomon …); experiment: BLI (Octet), biotinylated HA on streptavidin sensors
[2] = target: T1, hemagglutinin H3 (A/Hong Kong/1/1968-H3N2) (influenza A virus A/Hong Kong/1/1968 …, UniProt Q91MA7 27-521); experiment: as above
[3] = target: T1, hemagglutinin H3 (A/Hong …); experiment: BLI (FIG. 5)

| Binder | Kd [1] [nM] | Kd [2] [nM] | Kd [3] [nM] |
| --- | --- | --- | --- |
| Hsc1 (SEQ ID NO:135) fused to HAA.1c (SEQ ID NO:227) via the triLong linker (SEQ ID NO: 352), trimer (designed binder) MEEVVLITVPSEEVARTIAKALVEERLAACVNIVPGLTSIYRWQGEVVEDQELLLLVKTTTHAFPKLKERVKALHPYTVPEIVALPIAQGNQEYLDWLRENAGGGGSGGSGIVNVPNCNTTKYQQLARTAVAIYNYHEQAHLTFVENLNCKEQLGEGDYYYITLAATDDAGKKAIYEAKIGVVESAGWTGVEEFKLV | < 1 | < 1 |  |
| HAA.1 c fused to Hsc1-EA via a triLong linker, trimer (designed binder) MEEVVLITVPSEEVARTIAKALVEERLAACVNIVPGLTSIYRWQGEVVEDQELLLLVKTTTHAFPKLKERVKALHPYTVPEIVALPIAQGNQEYLDWLRENAGGGGSGGSGIVNVPNCNTTKYQQLARTAVAIYNYHEQAHLTFVENLNCKEQGNYYYITLAATDDAGKKAIYEAKIGVVESAGWTGVEEFKLV |  |  | < 1 |

Source: US20170198014A1 (UNIVERSITY WASHINGTON THROUGH ITS CENTER FOR …, published 2017)
